± gives the half width of the 95% confidence interval.
Key:
[1] = folding stability dG unfold from trypsin proteolysis; higher = more stable
In short: (§1)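 Only designs with AlphaFold2 dimer inter-PAE above 15 were retained; each was a mini-protein under 80 residues with no cysteine, in a PA-tagged cDNA display construct. After digestion with trypsin and chymotrypsin and sequencing, K50 was inferred by Bayesian fitting of counts, and unfolding free energy was derived per protease or combined against a sequence-predicted unfolded-state K50 and a shared folded-state K50.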

[2] = folding stability dG unfold (combined trypsin and chymotrypsin); higher = more stable
In short: as §1

[3] = folding stability dG unfold from chymotrypsin proteolysis; higher = more stable
In short: as §1

| Sequence | folding stability dG unfold [1] | folding stability dG unfold [2] | folding stability dG unfold [3] |
| --- | --- | --- | --- |
| SAGGSADENGKPKPTLIIKIEVEHPNGQKFPLSFIFKSPEEAEEIANELANNGYEVNIRLMPLDQISAGGSA [r15_906_TrROS] | 1.07 ± 0.024 kcal/mol | 1.55 ± 0.059 kcal/mol | 1.71 ± 0.044 kcal/mol |
| SAGGSAGGSAGPEIELREDSLVIRVKAKEGEVIGVPEGLEVEGVVYDPSTGELTVVVRAPSAGGSAGGSAGG [r11_942_TrMRF] | 2.31 ± 0.23 kcal/mol | 1.83 ± 0.21 kcal/mol | 1.73 ± 0.096 kcal/mol |
| SAGGSAGGSMTKTITTKTEEEAESEARRLLKEEGVPEGVEPTPITLESVDPEKGLYTFTVELESAGGSAGGS [r12_999_JUSTAS] | 0.2 ± 0.062 kcal/mol | 0.379 ± 0.076 kcal/mol | 0.395 ± 0.099 kcal/mol |
| SAGGSAGGSAGGKILVITAKIEDIPEIIEAAKKLGIDSVIIDIPETKEKIIITKDSVKLISAGGSAGGSAGG [r7_564_TrMRF] | 1.54 ± 0.057 kcal/mol | 1.63 ± 0.14 kcal/mol | 1.76 ± 0.089 kcal/mol |
| SAGGSAGGSAGGKKPITLTVLVTDPDGYLLQRTTTLTLDEDTNELTATTTVTRIPLEDLSAGGSAGGSAGGS [r10_1225_TrROS_Hall] | 0.684 ± 0.11 kcal/mol | 1.6 ± 0.13 kcal/mol | 1.97 ± 0.088 kcal/mol |
| SAMIEVINATDPVTGKPYTITREGEGITVTDPETGKTYAATKDGDTITLDAGDTPLTLTPVSTVPESLLSAG [r14_208_JUSTAS] | 0.839 ± 0.041 kcal/mol | 1.01 ± 0.1 kcal/mol | 0.989 ± 0.16 kcal/mol |
| TWTFTIMIPIKPEIREALDSGKPLPIEELVDWIKDEIARMFGFKDVTVKGIEIHPDPNGEIMVMVTIEFKPS [r1_290_TrROS] | 4.29 ± 0.28 kcal/mol | 4.62 ± 0.12 kcal/mol | 4.64 ± 0.12 kcal/mol |
| SALSASELAKRVRDRIKELSNEEGYNVDIKVDVQPNEDGSVTVHIQFDSPWMIKRIKEKLPPGVNVEIMSAG [r14_491_TrROS] | 3.15 ± 0.073 kcal/mol | 2.75 ± 0.05 kcal/mol | 2.421 ± 0.021 kcal/mol |
| SAGGSMAKILEIIPEEKKIVVEFEGDPKTFPLDEIEEIRIEPEKGYLTIKVGDKVYTIPLDDPNDFSAGGSA [r2_48_TrMRF] | 0.579 ± 0.027 kcal/mol | 1.81 ± 0.082 kcal/mol | 2.25 ± 0.044 kcal/mol |
| SAGGSAGGSAKPDPGAPYPWKIVEVVPIRIDMYFKFPGEPFKMDIEIPILVMVDPDNGKIFSAGGSAGGSAG [r3_391_TrROS] | 2.3 ± 0.11 kcal/mol | 2.7 ± 0.14 kcal/mol | 2.94 ± 0.064 kcal/mol |
| SAGGMSLEHVTEIVETVTHPDGTKTVTIRLSDPAIWAGEDPATAAALAEAVQAEHADEGVAVTVVGAPSAGG [r13_243_JUSTAS] | -0.642 ± 0.26 kcal/mol | 0.585 ± 0.15 kcal/mol | 1.05 ± 0.042 kcal/mol |
| SMVKIYFPNAPPELVAEAIEKHPDSTVEIYFEPGKPDVFESILKDYDVEVEPFPTEDGRLLVKARVKVPGSA [r9_1138_TrMRF] | 2.11 ± 0.13 kcal/mol | 1.74 ± 0.29 kcal/mol | 1.32 ± 0.12 kcal/mol |
| SAGGMKVTTKPLPSDSEVVDIPGGVTMKIDPKTGVGTITLPDGKTLKMTITKDPNKNTTTITITPESSAGGS [r8_186_JUSTAS] | 0.366 ± 0.16 kcal/mol | 0.998 ± 0.22 kcal/mol | 1.14 ± 0.2 kcal/mol |
| SAGGSAGGDKNAKPQPIMIAIEIYNPNGRKQEHTFPFESLDDAKEFIEDWLPPGYQVKVDIYPVSAGGSAGG [r6_290_TrROS] | 0.322 ± 0.1 kcal/mol | 0.693 ± 0.16 kcal/mol | 0.709 ± 0.07 kcal/mol |
| SAGKIEILDEKPYKDSITVVAKLPGTDEIIVLTYNPKTKTVEIKIFPPKGVKTIPVKAKDIEKALKEIASAG [r5_769_TrMRF] | 0.728 ± 0.072 kcal/mol | 1.7 ± 0.25 kcal/mol | 2.18 ± 0.16 kcal/mol |
| SAGGSAGGSAGSMTVTVTGGGVSVEVYPETGLVRVRSPSGSETLVDIATGEVVRREPAAASAGGSAGGSAGG [r11_149_JUSTAS] | 0.631 ± 0.047 kcal/mol | 0.781 ± 0.066 kcal/mol | 0.872 ± 0.029 kcal/mol |
| SAGGSAGGSAGGDRLKIIIPFPPGMDIDQIAEELKPHFKKVEIEHDKEDGWVTIEVELDSAGGSAGGSAGGS [r10_1007_TrROS] | 0.271 ± 0.097 kcal/mol | 0.939 ± 0.15 kcal/mol | 1.08 ± 0.1 kcal/mol |
| SAGGSAMFVVVEVESPEELRELVEEEDPSVFLLPTEDGEERLVVVDPENPENIRVIPLERPELLAPSAGGSA [r15_11_TrMRF] | 0.535 ± 0.042 kcal/mol | 0.27 ± 0.068 kcal/mol | -0.285 ± 0.27 kcal/mol |
| SAGGSMDLRVVVVGEDGKVLELPAGEEVSLPDVVAFFSELGDFEVEAHPESGTLTIRVPKGVLEEASAGGSA [r2_164_TrMRF] | 0.543 ± 0.02 kcal/mol | 0.728 ± 0.046 kcal/mol | 0.804 ± 0.042 kcal/mol |
| SAGGSATAEELADEIANYMADRHGMEVKKIEITDVDNDRVVFRAEVEMPNPNGKKHTHPFTIEIPVSAGGSA [r15_276_TrROS] | -0.0958 ± 0.17 kcal/mol | 0.226 ± 0.29 kcal/mol | 0.303 ± 0.31 kcal/mol |
| SAGGSAGGSAGGMREIAREIWEEYNNPVTIRIRNPNGKHEPFRFPDDPEDIPGWDIDDITSAGGSAGGSAGG [r7_998_TrROS] | -0.831 ± 0.3 kcal/mol | 0.463 ± 0.082 kcal/mol | 0.79 ± 0.098 kcal/mol |

| Sequence | folding stability dG unfold [1] | folding stability dG unfold [2] | folding stability dG unfold [3] |
| --- | --- | --- | --- |
| SAGMPGKIRVEVEAEISEDNVIKLKIKIYGPDGELIDEIEAEIYLPVPPLSPSEGGGLIEAGNPELAEGSAG [r5_944_TrMRF] | 2.54 ± 0.2 kcal/mol | 3.13 ± 0.13 kcal/mol | 3.38 ± 0.092 kcal/mol |
| SAGGSAGGKKIRIRIPLPDGTWVEVEVYFSEDGIYSFYIPPTGKLVLIDVGENGIKITIIDLPPSAGGSAGG [r6_58_TrMRF] | 4.1 ± 0.32 kcal/mol | 4.38 ± 0.43 kcal/mol | 4.47 ± 0.27 kcal/mol |
| SAGGMIEVFVEGLTLEETLRRLAEEYPDVPEVVVFFPDGTAVFFRRDGDEVEVVEVVPVGPVAPDELSAGGS [r8_225_TrMRF] | 2.59 ± 0.068 kcal/mol | 2.93 ± 0.061 kcal/mol | 3.118 ± 0.017 kcal/mol |
| SAGGSAGGSAGSSILSVVEEDPETGLRVVLSPVSDVPVRIVTKRIPEKEEIKVLEVERLPSAGGSAGGSAGG [r11_1066_JUSTAS] | -0.603 ± 0.38 kcal/mol | -0.746 ± 0.43 kcal/mol | -0.758 ± 0.37 kcal/mol |
| SKKIIIKITITDPKNKKKIKITEIIFDKKTKKIIIKIEVENVKNKEKLKSKEDVLEAIKKLLEKLGFKPISA [r9_258_TrROS_Hall] | 1.81 ± 0.23 kcal/mol | 2.25 ± 0.47 kcal/mol | 2.47 ± 0.35 kcal/mol |
| SMATVLSVSENPENPDTLSFEVELPDSPMSVTVPKDPKTGKYTMTVETPEATTTRDFTSLEDALAYIERASA [r9_366_JUSTAS] | 0.787 ± 0.021 kcal/mol | 0.795 ± 0.034 kcal/mol | 0.758 ± 0.08 kcal/mol |
| SAGMLEISSDVLKALGIPVGATAEEVKERIQRRLEELGFEVEIPSVVIEELDPETGRVGVRIDLDLRPPSAG [r5_23_TrMRF] | 3.05 ± 0.18 kcal/mol | 2.5 ± 0.23 kcal/mol | 2.23 ± 0.35 kcal/mol |
| SAGGSEIKIEIKYDEETGELVVEITVPESEEEVKKLVEELKKLGVEKVEIVRDKKTKEYRIRVVFKSAGGSA [r2_358_TrROS_Hall] | 3.28 ± 0.14 kcal/mol | 4.82 ± 0.57 kcal/mol | 4.98 ± 0.3 kcal/mol |
| SAGGSAGGSAGPTLTLTLPPGKLSPEFLEALAAQGYTLGEVTVTEVPEDDTVVVTVTTAPSAGGSAGGSAGG [r11_345_JUSTAS] | 1.4 ± 0.069 kcal/mol | 1.1 ± 0.069 kcal/mol | 0.623 ± 0.12 kcal/mol |
| SKMKVIKTFENKETGEKIVIVKDEKTKKYYIFIYNKDGELVEKIEVEPGETITLPNGKTITIKEGDVIEFSA [r9_340_TrROS_Hall] | 4.24 ± 0.13 kcal/mol | 4.35 ± 0.087 kcal/mol | 4.24 ± 0.071 kcal/mol |
| SAGGSAGGSASVTVSPTPDDTWRVEVTETRYFFDPDGRPIGPVTITSSRVVSSEEEAAALLSAGGSAGGSAG [r3_232_JUSTAS] | 0.537 ± 0.038 kcal/mol | 0.49 ± 0.15 kcal/mol | 0.397 ± 0.15 kcal/mol |
| SAGGSAGGSAGEIEVTVTFTGDDGYVVEVKYTFEVPEPNNPIIKKVEVKVKKLKPNEPASSAGGSAGGSAGG [r11_517_TrMRF] | 1.12 ± 0.075 kcal/mol | 2.22 ± 0.23 kcal/mol | 2.63 ± 0.063 kcal/mol |
| SAGGMEIKIENIEINPDKKTIQYNFEIYHDGQPFKMDISIEVDPKNGLYKITVTYPDFPGVKHTLYIPSAGG [r13_615_TrROS] | 3.38 ± 0.23 kcal/mol | 5.35 ± 0.54 kcal/mol | 5.27 ± 0.15 kcal/mol |
| SAELIEALKKAGYRIKIEVEVTEVRVVRNEDGELKVEAKIKVKIEIEPLPPPPPPLSLEDLLDKNGKLVSAG [r14_569_TrROS_Hall] | 3.26 ± 0.41 kcal/mol | 2.95 ± 0.56 kcal/mol | 3.3 ± 0.13 kcal/mol |
| SAGGSAGGSAGGGISEAAASGTPLLVTYTDESGNVTEVVVRPDSPVPLPGVVSAEVRLESAGGSAGGSAGGS [r10_700_JUSTAS] | 1.05 ± 0.03 kcal/mol | 0.666 ± 0.037 kcal/mol | 0.167 ± 0.023 kcal/mol |
| SAGGSAGGSPGKPYVEVEFTFIAFFPDGWLWVMTMKIEIPPDNNEIKPDIEMERIPLPPGQFLSAGGSAGGS [r12_811_TrROS] | 2.43 ± 0.05 kcal/mol | 2.7 ± 0.08 kcal/mol | 2.73 ± 0.066 kcal/mol |
| SAGGSAELPSLGAEITVTEDPNRNTYTVTVPLVAPDGAPVGTLTVPFSSLEEARAFLRAQGLGELLSAGGSA [r15_127_JUSTAS] | 2.59 ± 0.031 kcal/mol | 2.773 ± 0.016 kcal/mol | 2.836 ± 0.01 kcal/mol |
| SAGGMVTTESTKPYLLPNGTKATLTTTTTLYPDGTVVSPTTFTLTFPDGSSTTTTTTTVTTLASGALSAGGS [r16_505_JUSTAS] | 0.836 ± 0.048 kcal/mol | 0.727 ± 0.065 kcal/mol | 0.563 ± 0.089 kcal/mol |
| SAGGSAGGSAGMEYHLVVVRPPNGEELVLLTDDDPELARRAARELFPGAEVRVEPVVLPESAGGSAGGSAGG [r11_850_TrMRF] | 0.111 ± 0.034 kcal/mol | 0.099 ± 0.077 kcal/mol | 0.0832 ± 0.069 kcal/mol |
| SAGGSLELPEGAKVEVEVEIEEVDDDTVKIKVKVKFTFINEDGEPETFEAEFEFEIPKEEAEELLGSAGGSA [r2_226_TrMRF] | 1.88 ± 0.17 kcal/mol | 3.32 ± 0.13 kcal/mol | 3.66 ± 0.11 kcal/mol |
| SAMVLKVEEEPFPPNAKREVKEIRKDPNSDNLFKVKIELEKSPDPSVTSAKVITIPPDGSKKVEEKVLESAG [r14_10_JUSTAS] | 0.514 ± 0.27 kcal/mol | 0.508 ± 0.59 kcal/mol | 0.47 ± 0.19 kcal/mol |
